The results in this text go back to the nanobody polyreactivity screen of Harvey et al. (2022).

A short description of this data set: yeast display, Sf9 membrane polyspecificity reagent, FACS + sequencing; frameworks hold sequencing errors. In a few lines: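 A synthetic nanobody library was expressed on Saccharomyces cerevisiae BJ5465 by galactose induction for 36–48 hours. The library was stained for 1 hour at 4 °C with 10% biotinylated, detergent-solubilized Sf9 membrane reagent and enriched with streptavidin microbeads before FACS. Low and high (top ~1%) gates were set on anti-HA fluorescence for expression and streptavidin fluorescence for reagent binding, and each polyreactivity label reflects the gate of origin.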
In the case of “QVQLVESGGGLVQAVCSLRLSCAASGRTFHGNAMGWYRQAPGKERELVAAISYSGGRTYYADSVKGRFTISRDNAKNTVYLQMNSLKPEDTAVYYCAAWGSSYSFDYWGQGTQVTVSS”, the “polyreactivity (PSR sort gate)” value is on record as “high polyreactivity”.

For the sequence “QVQLVESGGGLVQAGGSLRLSCAASGSTFRTYAIGWYRQAPAKERELVAAISRSGGRTYYADSVKGRFTISRDNAMNTVYLQMNSLKPEDTAVYYCAVGDTYTYDYWGQGTQVTVSS”, the “polyreactivity (PSR sort gate)” value is “high polyreactivity”.

For “QVQLVESGGGLVQAGGSLRLSCAASGSTFFPYAMGWYRQAPGKERELVAAIRWSGGRTYYADSVKGRFTISRDNAKNTVYLQMNRLKPEDTAVYYCNAGRYKYTDDYWGQGTQVTVSS”, the “polyreactivity (PSR sort gate)” value is reported as “high polyreactivity”.

As for “QVQLVESGAGLVQAGGSLRLSSAASGLTFQTYAMGCYRQAPGKEREYVATISNGSSTYYADSVKGRFTISRDNAKNTVYFQMNILKPEDTAVYYCAKDYYYSRNQLYGHDYWGQGPQVTVSS”, the “polyreactivity (PSR sort gate)” value is given as “low polyreactivity”.

In the case of “QVQLEESGRGLVQAGGSLRLSCAASGFTFSLYAMGWYRQAPGKERELVAAISSRSGSTFYADSVKGRFTISRDNAKNTVYLQMNSLKPEDTAVYYCAARRDWLGGYWGQGTQVTVSS”, the “polyreactivity (PSR sort gate)” value was “high polyreactivity”.

For the sequence “QVQLVESGGGLVQAGGSLRLSCAASGRIFPHNAMGWYRQAPGKERELVAAIRFSGGNTYYADSVKGRFTISRDNAKNTVYLQLNSLKPEDTAVYYCFVYGYVPYNYWGQGTQVTVSS”, the “polyreactivity (PSR sort gate)” value is listed as “low polyreactivity”.

Regarding “QVQLVESGGGLVQAGGSLRLSCAASGIIFLSYAMGWYRQAPGKERELVAAIRSRGDSTYYADSVKGRFTISRDNAKNTVYLQMNSLKPEDTAVYYCNARQRRYPYGYWGQGTQVTVSS”, the “polyreactivity (PSR sort gate)” value is listed as “high polyreactivity”.

Take “QVQLVESGGGLVQAGGSLRLSCAASGRTFPWYGKGWYRPAPGKERELVAAISRTGGNTYYADSVKGRFTISRDNAKNTVYLQMNSLKPEDTAVYYCNAGYYSNRYYFYDYGYWGQGTQVTVSS”: the “polyreactivity (PSR sort gate)” value was “high polyreactivity”.

Consider “QVQLVESGGGLVQAGGSLRLSCAASGSIFSYYAMGWYRQAPGKERVLVAAIRRGGSTNYADSVKGRFTISRDNAKNTVYLQLNSLKPEDTAVYYCAASLGWRFYYWGQGTQVTVSS”, for which the “polyreactivity (PSR sort gate)” value was “high polyreactivity”.

Turning to “QVQLVESGGGLVQAGGSLRLSCAASGYTFSYYAMGWYRQAPGKERELVARITYSGGSTYYADSVKGRFTISRDNAKNTVYLQMNSLKPEDTAVYFCAARLRYPYWYYNWGQGTQVTVSS”, the “polyreactivity (PSR sort gate)” value was “high polyreactivity”.

With “QVQLVESGGGLVQAGGSLRLSCAASGSIFPYNAMGWYRQAPGKEREFVAAITYSGGSTYYADSVKGRFTISRDNAKNTVYLQMNSLKPEDTAVYYCAAGYSSRGSRDGYWGQGTQVTVSS”, the “polyreactivity (PSR sort gate)” value is recorded as “low polyreactivity”.

As to “QVQLVESGGGLVQAGGSLRLRCAASGFIFCQYSMGWYRQAPGKERELVAAITWGGTNTYYADSVKGRFTISRDNAKNTVYLQMNSLKPEDTAVYYCAADNSPFTGNLDYWGQGTQVTVSS”, the “polyreactivity (PSR sort gate)” value was “low polyreactivity”.

As for “QVQLVESGGGLVQAGGSLRLSCAASGIIFSGYAMGWYRQAPGKERELVASIRSGSNTYYADSVKGRFRISRDNAKNTVYLQMNSLKPEDTAVYYCAARVVPATFRFIRYPHPYYYWGQGTQVTVSS”, the “polyreactivity (PSR sort gate)” value is reported as “low polyreactivity”.

As for “QVQLVESGGGLVQAGGSLRLSCAASVSTFDGYAMGWYRQAPGKERELVAAISSNGGSTYYADSVKGRFTISRDNAKNTVYLQMNSLKPEDTAVYYCNTYRSTVYSWTHLLYDYWGQGTQVTVSS”, the “polyreactivity (PSR sort gate)” value is recorded as “low polyreactivity”.

For “QVQLVESGGGLVQAGGSLRLSCAASGFTFYWYTMGGYRQAPGKDRELVAAISGSGGRTYYADSVKGRFTISRDNAKKTVYLQMNSLKPEDTAVYYCAARGRYAYPRYGYYPVNYWGQVTQVTVSS”, the “polyreactivity (PSR sort gate)” value is recorded as “high polyreactivity”.

On to “QVQLVESGGGLVQAGGSLRLSCAASGSIFNTYVMGWYTQAPGKERELVAAITSSGGRTYYADSVKGRFTISRDNAKNTVYLQMNSLNPEDTAVYYCNTAQRWVGRNDYWGQGTQVTVSS”, for which the “polyreactivity (PSR sort gate)” value was “high polyreactivity”.

For the sequence “QFQLVESGGGLVQAGGSLRLSCASSGGTFGNNDMGWYRQAPGKESELVAAIRSAGTTYYADSVKGRFTISRDNAKNTVYLQMNSLKPEDTAVYYCNADTTGYWSYGFQYYGEDYWGQGTQVTVSS”, the “polyreactivity (PSR sort gate)” value is listed as “low polyreactivity”.

For the sequence “QVQLVESGGRLVQAGGSLRLLCAASGLILHKYAMGWYRQAPGKERELVASINSGANTNYADSVKGRFTISRDNAKNTVYLQMNSLKPEDTAVYYCNADPGFRSGDYGYSSFDYGGQGTQVTVSS”, the “polyreactivity (PSR sort gate)” value is “low polyreactivity”.

On to “QVQLVESGGGLVQAGGSLRLSCAASGRIFGKNDMGWYRQAPGKETEFVATIDWSGGSTYYADSVKGRFTISRDNAKNTVYLQMNSLKPEDTAVYYCAASGWNRYLFDYWGQGTQVTVSS”, for which the “polyreactivity (PSR sort gate)” value is listed as “low polyreactivity”.

Regarding “QVQLVESGGGLVQAGASLRLSCAASGSTFLQNAMGWYRQAPGKVRELVAAITRSGGSTNYADSVKGRFKISRDNAKNTVYLQKNSLKPEDTAVYYCPAGGRRYDDDYWGQGTQVTVSS”, the “polyreactivity (PSR sort gate)” value is on record as “high polyreactivity”.

In the case of “QVQLVESGGGLVQAGGSLRLSCAASGRIFDYYTMGWYRQAPGKERELVAAINWSGGSTYYADSVKGRITISRDKAKNTVYLQMNSLKPEDTAVYYCATLSYGREYGYWGQGTQVTVSS”, the “polyreactivity (PSR sort gate)” value is listed as “low polyreactivity”.

In the case of “QVQLVESGGGLVQAGGSLRLSCAASGFTFWVYAMGWYRQAPGKEREFVASISWTGDTTYYADSVKGRFTISRDNAKNTVYLQMNSLKPEDTAVYYCAGDTILGYDYWGQGTQVTVSS”, the “polyreactivity (PSR sort gate)” value is “low polyreactivity”.

In the case of “QVQLVESGGGLVQAGGTLRISCAASGITINYNAMGWYRQAPGKEMELVAAITRSGGSTNYADSVKGRFTISRDNAKNTVYLQMNSLKPEDTAVYYCAKGHLYAGHRHYAYGYWGQGTQVTVSS”, the “polyreactivity (PSR sort gate)” value is reported as “low polyreactivity”.

For the sequence “QVQLVESGGGLVQAGGSLRVSCAASGITFAYYAMGWYRHAPGKDRELVAAITRRGSSTYYADSVKGRFTISRDNAKNTVYLQMNSLKPEATAVYYCAAVAYGRERYDYWGPGTQVTVSS”, the “polyreactivity (PSR sort gate)” value is listed as “high polyreactivity”.

As to “QVQLVESGGGLVQAGGSLRLICAASGSTFYSYAMGWYRQVPGKERELVAAISRRGGSTYYADSVKGRFTISRDNAKNTVYLQMNSLKPEDTAVYYCAADWSRSSAEVDYWGQGTQVTVSS”, the “polyreactivity (PSR sort gate)” value was “high polyreactivity”.

As for “QVQLVESGGGLVQAGGSLRLSCAASGSIFRRYAMGWYRQAPGKERELVAGISSGGYTNYADSVKGRFTISRDNAKNTVYLQMNRLKPEDTAVYYCAAKQYRYVRYRPVDYWGQGTQVTVSS”, the “polyreactivity (PSR sort gate)” value is given as “high polyreactivity”.

Regarding “QVQLVESGGGLVQAGGSLRLSCAASGSISKINAMGWYRQAPGKERELVAAINTGDSTYYADSVKGRFTISRDNAKNTVYLQMNCLKPEDTAVYYCAAEGSPTGYDYWGQGTQVTVSS”, the “polyreactivity (PSR sort gate)” value is listed as “low polyreactivity”.

Turning to “QVQLVESGGGLVQAGGILRLSCAASGSTFTGYAMGWYRQAPGKERELVAAISSSGGRTYYAASVKGRFTISRDNANNTVYLQMNSLKPEVTAVYYCATDHYRYGGYSWGQGTEVTVSS”, the “polyreactivity (PSR sort gate)” value is listed as “high polyreactivity”.

On to “QVQLVESGGGLVQAGGSLRLSCAASGFTVNNNGMGWYIQAPGKERELVASISSRTTSTYYADSVKGRFTFSRDKAKNTDYFQTNSLKPEDTAVYYCAAQAWWDGEYDYWGQGTQVTVSS”, for which the “polyreactivity (PSR sort gate)” value is “high polyreactivity”.

On to “QVQLVESGGGLVQAGGSLRLSCAASGVIFVNNGMGWYRQAPGKERELVAAISSGGSTNYADSVKGRFTIARDNAKNTDYLQMNSLKPEDTAVYYCAVVDYLWLLQLWLSDYWGQGTQVTVSS”, for which the “polyreactivity (PSR sort gate)” value is listed as “low polyreactivity”.

Consider “QVQLVESGGGLVQAGGSLRLSCAASGFTFFYYVMGWYRQAPGKERELVAAISQHGGSTYYADSVKGRFTISRDNAKNTVYLQMNSLKPEDTAVYYSAASPVVNRRGTYGYWGQGTQVTVSS”, for which the “polyreactivity (PSR sort gate)” value is “high polyreactivity”.

As for “QVQLVESGGGLVQAGGSLRLSCAASGRTFGTYAMGWYRQAPGKERELVASITSGDSTNYADSVKGRFTISRDYAKNTVYLQMNSLKPEDTAVYYCNARGDVIVTPPKFSFNYEYWGQGTQVTVSS”, the “polyreactivity (PSR sort gate)” value is “low polyreactivity”.

On to “QVQLVESGGGLVQAGGSLRLSCAASGSIFQRNAMGWYRQAPGKERELVAAISRSGGRTYYADSVKGRFTISRDNAKNTVYLQMNSLKPEDTAVYYCAADSPYIQNRFEYWGQGTQVTVSS”, for which the “polyreactivity (PSR sort gate)” value is “high polyreactivity”.

With “QVQLVESGGGLVQAGGSLRLSCAASGLIFPKYAMGWYRQAPGNEREFVAAISGRGGTTYYADSVKGRFTISRDNAKNTVYLQMNSLKPEDTAVYYCAAGGPWANIYGNGYWGQGTQVTVSS”, the “polyreactivity (PSR sort gate)” value is “high polyreactivity”.

On to “QVQLVESGGGLVQAGGSLRLSCAASGIIFKEYALGGYRQAPGKERELVARITGSTGSTYADSVNGRFTISRDNAKNTVYLQMNSLKPEDTAVYYCAKYIGRGERLSDTRYGLDYWGQGTQVSVSS”, for which the “polyreactivity (PSR sort gate)” value is “low polyreactivity”.

“QVQLVESGGGLVQAGGSLRLSCAASGITLNRNAMGWYRQAPGKERELVARISRRGGTTYYADSVKGRFTISRDNAKNTVYLQMNSLKPEDTAVYYCNAGPYGGNPFDYWGQGTQVTVSS”: the “polyreactivity (PSR sort gate)” value was “high polyreactivity”.

For the sequence “QVQLVESGGGSVQAGGSLRLSCAASGFTIRTYAMGWYRQAPGKESELVAAITSSGSSTYYAYSVKGRFTISRDNAKNTVYLQMNSLKPEDTAVYYCAADAPRSYRFGYWGQGTQVTVSS”, the “polyreactivity (PSR sort gate)” value is “high polyreactivity”.

For “QVQLVESGGGLVQAGGSLSLSCAASGRSFFNYAMGWYRQAPGKERELVAAISFSDGSTYYADSVKGRFTISRDNAKNTVYLQMNSLKPEDTAVYYCAAEPDYVYYRSDQALFDYWGQGTQVTVSS”, the “polyreactivity (PSR sort gate)” value is “high polyreactivity”.

Consider “QVELVVSGGGLVQPGGSLRLSCAASGSTFFNNGMGWYRQSPGKERELVATITKRGGNTYYADSVKGRFTISRDNAKNTVYLQMNSLKPEDTAVYYCAALRYKLPLGYWGQGTQVTVSS”, for which the “polyreactivity (PSR sort gate)” value was “high polyreactivity”.

“QVQLVESGGGLVQAGGSLRLSCAASGSILGYYAMGWYRQEPGKERELVAAISGRGGSTYYADSVKGRFTISRDNAKNSVYLHMNSLKPEDTAVYYCAVVWGSYYWGQGGGEYWGQGTQVTVSS”: the “polyreactivity (PSR sort gate)” value is “high polyreactivity”.

With “QVQLVESGGGLVQAGGSLRLSCAASGRIFGNNAMGWYRQAPGKVRELVAAIRSRGTRTYYADSVKGRFTISRDNAKNTVNLQMNSLKPEDPAVYYCATTSLTGLYDRYDYWGQGTQVTVSS”, the “polyreactivity (PSR sort gate)” value is listed as “high polyreactivity”.
